These results are taken from paper doi:10.1101/2025.03.06.641801, “DMBT1 promotes SARS-CoV-2 infection and its SRCR-derived peptide inhibits SARS-CoV-2 infection” (bioRxiv, 2025).

This data set concerns the molecule itself. Put plainly: reverse-phase HPLC with TOF mass detection; peptide 7 of an earlier (old) synthetic batch in PBS; Agilent HPLC Infinity II 1290 with TOF 6230, 5-65% acetonitrile/water with 0.1% TFA, 40 C.

B1: peptide 7 (CQGRVEVLYRGSWGTV), SRCR-domain-derived peptide of DMBT1 (peptide)
peptide: CQGRVEVLYRGSWGTV
notes: Free N-terminal cysteine; earlier synthetic batches formed disulfide-linked homodimers in PBS; also called Pep7
As to B1, the binding result is recorded as “binds”.
